US20080044360A1
Bridge positions count the residues as written; N and C are the ends. Square brackets hold non-standard residues; d marks the D form. Primed or numbered codes have the meaning given here. Side chains are listed from the residue outwards. Ends that are not written are not given here. * marks the point of attachment. Tyr(3-Cl) = N[C@@H](Cc1ccc(O)c(Cl)c1)C(=O)O; Dip = N[C@H](C(=O)O)C(c1ccccc1)c1ccccc1; Phe(4-NH2) = Nc1ccc(C[C@H](N)C(=O)O)cc1; Gd^T(3) = GdDTPA attached via thiourea; d1Nal = N[C@H](Cc1cccc2ccccc12)C(=O)O; Pen = CC(C)(S)[C@H](N)C(=O)O; Gd^T = not defined here; Gd^T″ = GdDTPA-thiourea; Cbz = O=C(OCc1ccccc1)*; Dap = NC[C@H](N)C(=O)O

Each binder was assayed against rat collagen, acid soluble, type I, rat tail (Upstate 08-115) (rat) (UniProt P02454) (assay: dried collagen assay).
Sequence of rat collagen, acid soluble, type I, rat tail (Upstate 08-115) (rat) (P02454 152-1207, chain 1 of 2): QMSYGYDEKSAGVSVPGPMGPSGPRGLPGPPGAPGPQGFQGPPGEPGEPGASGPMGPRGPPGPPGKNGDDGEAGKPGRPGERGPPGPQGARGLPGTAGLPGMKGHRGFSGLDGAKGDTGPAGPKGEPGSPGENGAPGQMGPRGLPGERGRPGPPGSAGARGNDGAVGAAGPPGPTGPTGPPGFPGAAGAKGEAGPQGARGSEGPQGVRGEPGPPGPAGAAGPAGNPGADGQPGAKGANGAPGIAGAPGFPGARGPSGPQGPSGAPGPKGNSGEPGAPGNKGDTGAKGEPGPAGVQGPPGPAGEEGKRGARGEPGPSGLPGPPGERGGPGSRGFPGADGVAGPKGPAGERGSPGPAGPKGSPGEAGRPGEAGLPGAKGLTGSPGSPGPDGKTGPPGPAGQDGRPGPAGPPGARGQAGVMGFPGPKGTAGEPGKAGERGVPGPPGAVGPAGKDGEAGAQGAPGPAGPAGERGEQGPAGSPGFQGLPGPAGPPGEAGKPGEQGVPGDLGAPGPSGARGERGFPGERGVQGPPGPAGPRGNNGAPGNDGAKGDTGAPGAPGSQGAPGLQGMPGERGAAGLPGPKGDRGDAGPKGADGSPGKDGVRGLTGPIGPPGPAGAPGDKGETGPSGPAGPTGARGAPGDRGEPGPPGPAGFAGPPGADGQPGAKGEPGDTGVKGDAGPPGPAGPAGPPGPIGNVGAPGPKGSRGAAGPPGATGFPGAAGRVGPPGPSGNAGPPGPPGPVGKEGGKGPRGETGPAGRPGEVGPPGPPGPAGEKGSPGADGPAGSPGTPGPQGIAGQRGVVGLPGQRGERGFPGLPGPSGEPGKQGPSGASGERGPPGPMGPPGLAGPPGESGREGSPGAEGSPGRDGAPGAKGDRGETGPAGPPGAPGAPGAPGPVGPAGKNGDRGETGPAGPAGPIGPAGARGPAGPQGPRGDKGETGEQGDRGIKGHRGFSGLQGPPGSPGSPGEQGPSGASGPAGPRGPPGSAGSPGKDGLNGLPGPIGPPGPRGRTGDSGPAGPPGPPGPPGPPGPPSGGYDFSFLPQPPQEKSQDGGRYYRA
Sequence of rat collagen, acid soluble, type I, rat tail (Upstate 08-115) (rat) (P02466 86-1125, chain 2 of 2, further chain): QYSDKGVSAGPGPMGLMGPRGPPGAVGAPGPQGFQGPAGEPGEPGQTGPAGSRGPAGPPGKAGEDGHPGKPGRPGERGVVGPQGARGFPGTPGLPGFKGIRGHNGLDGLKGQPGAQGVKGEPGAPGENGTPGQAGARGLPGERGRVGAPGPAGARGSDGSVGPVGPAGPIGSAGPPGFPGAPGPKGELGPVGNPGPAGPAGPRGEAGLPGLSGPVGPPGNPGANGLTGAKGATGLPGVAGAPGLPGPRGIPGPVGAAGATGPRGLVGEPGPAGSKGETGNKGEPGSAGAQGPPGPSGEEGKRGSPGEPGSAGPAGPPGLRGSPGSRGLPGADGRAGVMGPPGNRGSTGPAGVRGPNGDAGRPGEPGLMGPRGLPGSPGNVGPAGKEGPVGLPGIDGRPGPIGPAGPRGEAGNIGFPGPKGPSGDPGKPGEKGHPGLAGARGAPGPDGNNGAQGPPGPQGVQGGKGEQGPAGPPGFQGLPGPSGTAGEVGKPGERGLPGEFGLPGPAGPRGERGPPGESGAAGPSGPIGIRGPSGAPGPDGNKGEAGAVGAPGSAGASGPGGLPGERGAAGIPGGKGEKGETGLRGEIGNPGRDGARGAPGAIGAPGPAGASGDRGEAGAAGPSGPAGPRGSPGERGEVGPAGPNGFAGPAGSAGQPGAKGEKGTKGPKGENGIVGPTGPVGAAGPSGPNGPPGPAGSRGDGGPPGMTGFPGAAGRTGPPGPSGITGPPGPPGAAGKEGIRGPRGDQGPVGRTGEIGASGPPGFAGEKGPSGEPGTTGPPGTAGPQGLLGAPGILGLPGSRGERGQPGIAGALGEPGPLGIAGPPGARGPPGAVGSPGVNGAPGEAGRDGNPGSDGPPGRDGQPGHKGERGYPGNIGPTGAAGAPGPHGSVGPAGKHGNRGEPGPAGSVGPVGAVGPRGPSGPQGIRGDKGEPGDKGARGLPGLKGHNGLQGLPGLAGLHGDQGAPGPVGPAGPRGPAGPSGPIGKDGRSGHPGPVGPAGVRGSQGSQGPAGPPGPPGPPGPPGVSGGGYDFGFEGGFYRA

Row | % bound [%] | Binder
1 | 5 | YHACAQAGCWIW (disulfide 4-9 (inferred)) [SEQ ID NO 133]
2 | 6 | GQWTCSADEYTWHCNYE (disulfide 5-14 (inferred)) [SEQ ID NO 142]
3 | 4 | QWTCSG[dD]EYTWHCNYE (disulfide 4-13 (inferred); not fully specified (N-terminus); printed as QWTCSGdEYTWHCNYE) [SEQ ID NO 169]
4 | 7 | YHACYQAGCWAW (disulfide 4-9 (inferred)) [SEQ ID NO 137]
5 | 6 | YHACYQAGCYIW (disulfide 4-9 (inferred)) [SEQ ID NO 107]
6 | 6 | QWTCSGDE[dY]TWHCNYE (disulfide 4-13 (inferred); not fully specified (N-terminus); printed as QWTCSGDEyTWHCNYE) [SEQ ID NO 171]

Second part, the binder before the results:

Row | Binder | % bound [%]
7 | Cbz-GQWHCTK(Gd^T″)RFPHHYCLYG (disulfide 5-14 (inferred)) [Compound ID 940] | 8
8 | {Gd^T″}-GK([Gly-Gd^T″])WHCTTLFPHHVCLYG (disulfide 5-14 (inferred)) [Compound ID 966] | 8
9 | {Gd^T″}-GQWTCSGDEYAWHCNY[dE] (disulfide 5-14 (inferred); not fully specified (C-terminus)) [Compound ID 832] | 4
10 | {Gd^T(3)}-GQWHCTTRFPHH[d1Nal]CLYG (disulfide 5-14; not fully specified (C-terminus)) [Compound ID 904] | 3
11 | {Gd^T″}-GQWTCSGDEYTWACNYE (disulfide 5-14 (inferred); not fully specified (C-terminus)) [Compound ID 833] | 4
12 | {Gd^T″}-GK([Gly-Gd^T″])WHCTTYFPHHYCL[Dip]G (disulfide 5-14 (inferred); not fully specified) [Compound ID 967] | 4
13 | {Gd^T}-GQWACSGDEYTWHCNYE (disulfide 5-14 (inferred); not fully specified (C-terminus); reading uncertain) [Compound ID 840] | 3
14 | {Gd^T(3)}-GQWHCTTRFPHHY[Pen]LYG (disulfide 5-14; not fully specified (C-terminus)) [Compound ID 906] | 5
15 | {Gd^T″}-DWTCS[dS]DEYTWHCNYE (disulfide 4-13 (inferred); not fully specified (C-terminus)) [Compound ID 836] | 8
16 | {Gd^T″}-GQWHCTTD[Phe(4-NH2)](Gd^T″)PHHYCLYG (disulfide 5-14 (inferred)) [Compound ID 885] | 9
17 | {Gd^T}-DWTCS[dL]DEYTWHCNYE (disulfide 4-13 (inferred); not fully specified (C-terminus); reading uncertain) [Compound ID 847] | 7
18 | {Gd^T″}-GQWHCTDRFPHHYCLYG (disulfide 5-14 (inferred)) [Compound ID 936] | 5

These binders were tested against human collagen type I, acid soluble, extracted from placenta (Sigma C7774) (human) (UniProt P02452) (assay: dried collagen assay).
Sequence of human collagen type I, acid soluble, extracted from placenta (Sigma C7774) (human) (P02452 162-1218 limits assumed, chain 1 of 2): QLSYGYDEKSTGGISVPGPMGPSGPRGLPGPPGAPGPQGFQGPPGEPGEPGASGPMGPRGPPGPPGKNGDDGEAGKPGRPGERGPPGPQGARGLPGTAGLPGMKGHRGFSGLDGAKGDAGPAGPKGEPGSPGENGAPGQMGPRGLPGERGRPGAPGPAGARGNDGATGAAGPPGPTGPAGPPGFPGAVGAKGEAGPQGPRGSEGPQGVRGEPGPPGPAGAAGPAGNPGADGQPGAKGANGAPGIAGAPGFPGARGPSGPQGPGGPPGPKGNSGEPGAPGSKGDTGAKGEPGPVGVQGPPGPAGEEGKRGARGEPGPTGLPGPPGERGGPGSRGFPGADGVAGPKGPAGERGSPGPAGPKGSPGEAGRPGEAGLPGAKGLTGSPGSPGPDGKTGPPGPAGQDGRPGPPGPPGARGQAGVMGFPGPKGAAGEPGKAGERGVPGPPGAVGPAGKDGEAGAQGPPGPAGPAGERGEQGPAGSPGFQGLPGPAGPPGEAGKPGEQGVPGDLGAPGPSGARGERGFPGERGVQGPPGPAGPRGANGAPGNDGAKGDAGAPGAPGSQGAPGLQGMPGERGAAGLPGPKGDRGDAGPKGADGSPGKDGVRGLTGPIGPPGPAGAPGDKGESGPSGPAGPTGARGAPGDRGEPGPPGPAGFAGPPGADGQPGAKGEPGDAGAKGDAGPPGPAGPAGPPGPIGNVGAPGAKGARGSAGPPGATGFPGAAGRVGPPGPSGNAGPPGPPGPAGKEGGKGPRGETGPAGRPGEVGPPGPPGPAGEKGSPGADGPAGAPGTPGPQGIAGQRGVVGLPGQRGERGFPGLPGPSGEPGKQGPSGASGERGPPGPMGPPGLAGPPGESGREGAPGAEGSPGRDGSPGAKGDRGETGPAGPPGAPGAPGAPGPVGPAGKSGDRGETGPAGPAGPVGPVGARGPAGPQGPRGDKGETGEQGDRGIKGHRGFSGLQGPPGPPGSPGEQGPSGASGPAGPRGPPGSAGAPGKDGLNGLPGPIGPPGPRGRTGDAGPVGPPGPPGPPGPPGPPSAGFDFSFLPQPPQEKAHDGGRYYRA
Sequence of human collagen type I, acid soluble, extracted from placenta (Sigma C7774) (human) (P08123 80-1119 limits assumed, chain 2 of 2, further chain): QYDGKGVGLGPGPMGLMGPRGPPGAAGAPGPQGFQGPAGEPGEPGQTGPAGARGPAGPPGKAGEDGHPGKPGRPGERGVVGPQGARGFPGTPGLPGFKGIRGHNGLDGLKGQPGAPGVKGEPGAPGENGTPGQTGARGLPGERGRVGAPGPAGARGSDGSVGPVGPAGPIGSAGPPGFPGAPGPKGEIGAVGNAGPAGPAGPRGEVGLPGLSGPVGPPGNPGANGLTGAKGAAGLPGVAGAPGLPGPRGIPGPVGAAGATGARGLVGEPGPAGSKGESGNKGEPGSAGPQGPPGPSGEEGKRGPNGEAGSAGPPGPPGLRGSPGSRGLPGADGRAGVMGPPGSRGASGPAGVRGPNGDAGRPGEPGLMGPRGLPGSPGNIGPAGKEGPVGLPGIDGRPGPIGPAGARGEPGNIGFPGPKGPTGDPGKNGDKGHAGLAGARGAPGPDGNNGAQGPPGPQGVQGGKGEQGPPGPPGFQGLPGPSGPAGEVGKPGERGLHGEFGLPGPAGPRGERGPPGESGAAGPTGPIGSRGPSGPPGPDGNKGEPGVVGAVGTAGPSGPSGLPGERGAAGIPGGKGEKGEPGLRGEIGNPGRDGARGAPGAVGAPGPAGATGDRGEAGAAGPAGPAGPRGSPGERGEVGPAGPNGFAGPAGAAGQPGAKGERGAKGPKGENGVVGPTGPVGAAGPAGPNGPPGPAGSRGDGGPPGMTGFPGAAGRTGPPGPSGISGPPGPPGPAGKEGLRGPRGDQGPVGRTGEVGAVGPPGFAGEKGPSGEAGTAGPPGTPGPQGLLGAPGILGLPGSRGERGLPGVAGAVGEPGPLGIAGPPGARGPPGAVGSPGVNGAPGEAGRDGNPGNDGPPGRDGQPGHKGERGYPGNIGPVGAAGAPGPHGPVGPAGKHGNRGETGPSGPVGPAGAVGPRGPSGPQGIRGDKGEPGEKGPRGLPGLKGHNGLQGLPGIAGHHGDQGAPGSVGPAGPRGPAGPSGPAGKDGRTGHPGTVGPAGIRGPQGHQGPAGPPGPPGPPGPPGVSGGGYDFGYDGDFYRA

Row | % bound [%] | Binder
19 | 7 | YHACYQAG[dC]WIW (disulfide 4-9 (inferred); not fully specified (C-terminus); printed as YHACYQAGcWIW) [SEQ ID NO 159]
20 | 3 | GWACNTTSKGDWECTNL (disulfide 4-14 (inferred)) [SEQ ID NO 83]
21 | 3 | FSECVWVNAYQCEYF (disulfide 4-12 (inferred)) [SEQ ID NO 113]
22 | 3 | GWTCSQPGANVWNCTMQ (disulfide 4-14 (inferred)) [SEQ ID NO 85]
23 | 4 | YHACAQAGCWIW (disulfide 4-9 (inferred)) [SEQ ID NO 133]
24 | 4 | QWT[dC]SGDEYTWHCNYE (disulfide 4-13 (inferred); not fully specified (N-terminus, C-terminus); printed as QWTcSGDEYTWHCNYE) [SEQ ID NO 167]
25 | 5 | WQVCADSPGVITYCYTY (disulfide 4-14 (inferred)) [SEQ ID NO 98]
26 | 4 | YHACYQAGCWAW (disulfide 4-9 (inferred)) [SEQ ID NO 137]
27 | 5 | QWTCSGDEYTW[dH]CNYE (disulfide 4-13 (inferred); not fully specified (N-terminus); printed as QWTCSGDEYTWhCNYE) [SEQ ID NO 174]
28 | 3 | HWSCDLAMDNEWFCSTK (disulfide 4-14 (inferred)) [SEQ ID NO 84]
29 | 5 | GQWTCSGDEYTAHCNYE (disulfide 5-14 (inferred); not fully specified (C-terminus)) [SEQ ID NO 147]
30 | 3 | AKKCWYNDGGHLRCRTL (disulfide 4-14 (inferred)) [SEQ ID NO 99]
31 | 5 | YHACYQAGCYIY (disulfide 4-9 (inferred)) [SEQ ID NO 108]

Continued, binder first:

Row | Binder | % bound [%]
32 | SWYCNNGSYGQWHCEHR (disulfide 4-14 (inferred)) [SEQ ID NO 80] | 6
33 | {Gd^T″}-GQWHCTTRFPHH[dR]CLYG (disulfide 5-14 (inferred); not fully specified (C-terminus)) [Compound ID 902] | 7
34 | {Gd^T″}-GQWHCTTRFPHH[dT]CLYG (disulfide 5-14 (inferred); not fully specified (C-terminus)) [Compound ID 905] | 6
35 | GWQCSGDASVWNCDWI (disulfide 4-13 (inferred)) [SEQ ID NO 39] | 6
36 | QWFCEMDEYGKWNCGMM (disulfide 4-14 (inferred)) [SEQ ID NO 81] | 3
37 | PWWCHEMPSMCFGF (disulfide 4-11 (inferred)) [SEQ ID NO 3] | 2
38 | {Gd^T″}-GQWHCT[dR]RFPHHYCLYG (disulfide 5-14 (inferred); not fully specified (C-terminus)) [Compound ID 900] | 4
39 | LWNCHGTDANWKCVLN (disulfide 4-13 (inferred)) [SEQ ID NO 37] | 7
40 | SWSCGGDHNAWKCQYS (disulfide 4-13 (inferred)) [SEQ ID NO 36] | 7
41 | {Gd^T″}-GQWHCTTD[Tyr(3-Cl)]PHHYCLYG (disulfide 5-14 (inferred); not fully specified (C-terminus)) [Compound ID 895] | 7
42 | GWSCHSMDMQWHCDFS (disulfide 4-13 (inferred)) [SEQ ID NO 67] | 5
43 | {Gd^T″}-GQWHCT[dN]RFPHHYCLYG (disulfide 5-14 (inferred); not fully specified (C-terminus)) [Compound ID 897] | 4
44 | {Gd^T″}-GQWHCTTDFPH[Dap]YCLYG (disulfide 5-14) [Compound ID 886] | 8
45 | LWTCSMDRNYDWVCGEK (disulfide 4-14 (inferred)) [SEQ ID NO 82] | 3
46 | SWHCFLENHHWMCSDH (disulfide 4-13 (inferred)) [SEQ ID NO 68] | 5
47 | GWSCHGDAADWPCQWS (disulfide 4-13 (inferred)) [SEQ ID NO 38] | 6
48 | KWECVHTKGEWYCETK (disulfide 4-13 (inferred)) [SEQ ID NO 65] | 7
49 | RWSCVLDADGWVCSDN (disulfide 4-13 (inferred)) [SEQ ID NO 66] | 6
50 | {Gd^T″}-GQWHCT[dS]RFPHHYCLYG (disulfide 5-14 (inferred); not fully specified (C-terminus)) [Compound ID 898] | 5
